Measured values: patent publication US11325966

How the values were obtained:
Test in all cases: cell-based or functional assay
[1] = molecular target: HIV-1 Env of pseudovirus Ce1086_B2 (HIV-1)
[2] = molecular target: HIV-1 Env of pseudovirus T251-18 (HIV-1)
[3] = molecular target: HIV-1 Env of pseudovirus WEAU_d15_410_787 (HIV-1)
[4] = molecular target: HIV-1 Env of pseudovirus CNE30 (HIV-1)
[5] = molecular target: HIV-1 Env of pseudovirus 191955_A11 (HIV-1)
[6] = molecular target: HIV-1 Env of pseudovirus C1080.c03 (HIV-1)
[7] = molecular target: HIV-1 Env of pseudovirus Ce1176_A3 (HIV-1)
[8] = molecular target: HIV-1 Env of pseudovirus C2101.c01 (HIV-1)
[9] = molecular target: HIV-1 Env of pseudovirus 6545.v4.c1 (HIV-1)
[10] = molecular target: HIV-1 Env of pseudovirus AC10.0.29 (HIV-1)
[11] = molecular target: HIV-1 Env of pseudovirus 62357_14_D3_4589 (HIV-1)
[12] = molecular target: HIV-1 Env of pseudovirus 3817.v2.c59 (HIV-1)
[13] = molecular target: HIV-1 Env of pseudovirus CNE53 (HIV-1)
[14] = molecular target: HIV-1 Env of pseudovirus 3016.v5.c45 (HIV-1)
[15] = molecular target: HIV-1 Env of pseudovirus ZM233M.PB6 (HIV-1)
[16] = molecular target: HIV-1 Env of pseudovirus ZM53M.PB12 (HIV-1)
[17] = molecular target: HIV-1 Env of pseudovirus 89-F1_2_25 (HIV-1)
[18] = molecular target: HIV-1 Env of pseudovirus C4118.c09 (HIV-1)
[19] = molecular target: HIV-1 Env of pseudovirus 6535.3 (HIV-1)
[20] = molecular target: HIV-1 Env of pseudovirus CNE20 (HIV-1)
[21] = molecular target: HIV-1 Env of pseudovirus WITO4160.33 (HIV-1)
[22] = molecular target: HIV-1 Env of pseudovirus 1006_11_C3_1601 (HIV-1)
[23] = molecular target: HIV-1 Env of pseudovirus 231966.c02 (HIV-1)
[24] = molecular target: HIV-1 Env of pseudovirus P1981_C5_3 (HIV-1)
[25] = molecular target: HIV-1 Env of pseudovirus RHPA4259.7 (HIV-1)
[26] = molecular target: HIV-1 Env of pseudovirus Ce2010_F5 (HIV-1)
[27] = molecular target: HIV-1 Env of pseudovirus HIV-16055-2.3 (HIV-1)
[28] = molecular target: HIV-1 Env of pseudovirus Q461.e2 (HIV-1)
[29] = molecular target: HIV-1 Env of pseudovirus 235-47 (HIV-1)
[30] = molecular target: HIV-1 Env of pseudovirus Ce704809221_1B3 (HIV-1)
[31] = molecular target: HIV-1 Env of pseudovirus QH0692.42 (HIV-1)
[32] = molecular target: HIV-1 Env of pseudovirus TRJO4551.58 (HIV-1)
[33] = molecular target: HIV-1 Env of pseudovirus 6244_13_B5_4576 (HIV-1)
[34] = molecular target: HIV-1 Env of pseudovirus X1254_c3 (HIV-1)
[35] = molecular target: HIV-1 Env of pseudovirus T278-50 (HIV-1)
[36] = molecular target: HIV-1 Env of pseudovirus SC422661.8 (HIV-1)
[37] = molecular target: HIV-1 Env of pseudovirus ZM249M.PL1 (HIV-1)
[38] = molecular target: HIV-1 Env of pseudovirus 1054_07_TC4_1499 (HIV-1)
[39] = molecular target: HIV-1 Env of pseudovirus Ce1172_H1 (HIV-1)
[40] = molecular target: HIV-1 Env of pseudovirus MS208.A1 (HIV-1)

354BG8 (antibody)
IC50 in TZM-bl assay [1]: > 10 µg/mL
IC80 in TZM-bl assay [1]: > 10 µg/mL
IC50 in TZM-bl assay [2]: 0.399 µg/mL
IC80 in TZM-bl assay [2]: 2.29 µg/mL
IC50 in TZM-bl assay [3]: 0.031 µg/mL
IC80 in TZM-bl assay [3]: 0.112 µg/mL
IC50 in TZM-bl assay [4]: 0.261 µg/mL
IC80 in TZM-bl assay [4]: 0.678 µg/mL
IC50 in TZM-bl assay [5]: > 10 µg/mL
IC80 in TZM-bl assay [5]: > 10 µg/mL
IC50 in TZM-bl assay [6]: > 10 µg/mL
IC80 in TZM-bl assay [6]: > 10 µg/mL
IC50 in TZM-bl assay [7]: 0.022 µg/mL
IC80 in TZM-bl assay [7]: 0.07 µg/mL
IC50 in TZM-bl assay [8]: > 10 µg/mL
IC80 in TZM-bl assay [8]: > 10 µg/mL
IC50 in TZM-bl assay [9]: > 10 µg/mL
IC80 in TZM-bl assay [9]: > 10 µg/mL
IC50 in TZM-bl assay [10]: 0.015 µg/mL
IC80 in TZM-bl assay [10]: 0.043 µg/mL
IC50 in TZM-bl assay [11]: > 10 µg/mL
IC80 in TZM-bl assay [11]: > 10 µg/mL
IC50 in TZM-bl assay [12]: 0.706 µg/mL
IC80 in TZM-bl assay [12]: 4.49 µg/mL
IC50 in TZM-bl assay [13]: 0.013 µg/mL
IC80 in TZM-bl assay [13]: 0.058 µg/mL
IC50 in TZM-bl assay [14]: > 10 µg/mL
IC80 in TZM-bl assay [14]: > 10 µg/mL
IC50 in TZM-bl assay [15]: 0.058 µg/mL
IC80 in TZM-bl assay [15]: 0.371 µg/mL
IC50 in TZM-bl assay [16]: > 10 µg/mL
IC80 in TZM-bl assay [16]: > 10 µg/mL
IC50 in TZM-bl assay [17]: > 10 µg/mL
IC80 in TZM-bl assay [17]: > 10 µg/mL
IC50 in TZM-bl assay [18]: > 10 µg/mL
IC80 in TZM-bl assay [18]: > 10 µg/mL
IC50 in TZM-bl assay [19]: 0.007 µg/mL
IC80 in TZM-bl assay [19]: 0.022 µg/mL
IC50 in TZM-bl assay [20]: 0.002 µg/mL
IC80 in TZM-bl assay [20]: 0.005 µg/mL
IC50 in TZM-bl assay [21]: 0.111 µg/mL
IC80 in TZM-bl assay [21]: 0.828 µg/mL
IC50 in TZM-bl assay [22]: 0.002 µg/mL
IC80 in TZM-bl assay [22]: 0.006 µg/mL
IC50 in TZM-bl assay [23]: > 10 µg/mL
IC80 in TZM-bl assay [23]: > 10 µg/mL
IC50 in TZM-bl assay [24]: 0.004 µg/mL
IC80 in TZM-bl assay [24]: 0.013 µg/mL
IC50 in TZM-bl assay [25]: 0.023 µg/mL
IC80 in TZM-bl assay [25]: 0.083 µg/mL
IC50 in TZM-bl assay [26]: > 10 µg/mL
IC80 in TZM-bl assay [26]: > 10 µg/mL
IC50 in TZM-bl assay [27]: > 10 µg/mL
IC80 in TZM-bl assay [27]: > 10 µg/mL
IC50 in TZM-bl assay [28]: > 10 µg/mL
IC80 in TZM-bl assay [28]: > 10 µg/mL
IC50 in TZM-bl assay [29]: 0.058 µg/mL
IC80 in TZM-bl assay [29]: 0.224 µg/mL
IC50 in TZM-bl assay [30]: 0.084 µg/mL
IC80 in TZM-bl assay [30]: 0.395 µg/mL
IC50 in TZM-bl assay [31]: 0.106 µg/mL
IC80 in TZM-bl assay [31]: 0.383 µg/mL
IC50 in TZM-bl assay [32]: 0.057 µg/mL
IC80 in TZM-bl assay [32]: 0.218 µg/mL
IC50 in TZM-bl assay [33]: 0.091 µg/mL
IC80 in TZM-bl assay [33]: 0.38 µg/mL
IC50 in TZM-bl assay [34]: 0.063 µg/mL
IC80 in TZM-bl assay [34]: 0.239 µg/mL
IC50 in TZM-bl assay [35]: 1.71 µg/mL
IC80 in TZM-bl assay [35]: > 10 µg/mL
IC50 in TZM-bl assay [36]: 0.058 µg/mL
IC80 in TZM-bl assay [36]: 0.368 µg/mL
IC50 in TZM-bl assay [37]: > 10 µg/mL
IC80 in TZM-bl assay [37]: > 10 µg/mL
IC50 in TZM-bl assay [38]: 0.048 µg/mL
IC80 in TZM-bl assay [38]: 0.222 µg/mL
IC50 in TZM-bl assay [39]: 0.019 µg/mL
IC80 in TZM-bl assay [39]: 0.083 µg/mL
IC50 in TZM-bl assay [40]: > 10 µg/mL
IC80 in TZM-bl assay [40]: > 10 µg/mL
